The source of these data is article PMC7324161, “Synergy between SIRT1 and SIRT6 helps recognize DNA breaks and potentiates the DNA damage response and repair in humans and mice” (eLife, 2020).

The subject of data set [1] is GST-SIRT6 WT (human). Nature of the data set: fluorescence polarization. Conditions: 20 nM FAM-DNA; Pull-down: 10 mM Tris-Cl pH 7.5, 100 mM NaCl, 0.01% NP40, 10% glycerol, 4 C overnight, 10 pmol DNA and 0.5 ug protein in 300 ul; FP buffer not in material. For orientation: Fluorescence polarisation rises when a labelled molecule tumbles more slowly, as on binding a larger partner.

The subject of data set [2] is GST-SIRT6 K33R (human). Nature of the data set: fluorescence polarization. Conditions: Pull-down: 10 mM Tris-Cl pH 7.5, 100 mM NaCl, 0.01% NP40, 10% glycerol, 4 C overnight, 10 pmol DNA and 0.5 ug protein in 300 ul; FP buffer not in material.
Data set [3] addresses T1, GST-SIRT6 K33R (human, UniProt Q8N6T7 1-355, K33R).
T1 construct: SIRT6, human, lysine 33 to arginine, as GST fusion
Nature of the data set: pull-down; 1 μg biotinylated peptide with 1 μg GST-SIRT6 in 50 mM Tris-HCl, 200 mM NaCl, 0.05% NP40 overnight at 4°C; Streptavidin Sepharose beads 1 hr at 4°C; western blot. The following applies: both partners purified. In general terms: In western blotting, separated proteins are transferred to a membrane and probed.

Where no end group is shown, it is not given here. [ ]: non-standard residue; d: D form. The star is where a group is joined. Biotin = O=C1N[C@H]2[C@H](CS[C@H]2CCCCC(=O)*)N1; pS = N[C@@H](COP(=O)(O)O)C(=O)O

T1 sequence (Q8N6T7 whole entry K33R, the tested form may be a part): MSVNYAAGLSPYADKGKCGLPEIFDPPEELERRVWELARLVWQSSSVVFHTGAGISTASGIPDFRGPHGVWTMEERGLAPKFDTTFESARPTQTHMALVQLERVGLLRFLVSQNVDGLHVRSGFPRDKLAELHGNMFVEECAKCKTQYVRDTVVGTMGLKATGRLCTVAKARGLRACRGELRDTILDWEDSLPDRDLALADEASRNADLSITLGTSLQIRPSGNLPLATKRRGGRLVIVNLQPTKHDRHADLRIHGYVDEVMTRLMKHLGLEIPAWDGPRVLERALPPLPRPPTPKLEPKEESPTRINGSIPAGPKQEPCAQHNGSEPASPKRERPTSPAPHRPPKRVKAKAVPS

By Kd is commonly meant the concentration at which binding is half-saturated. Read a low Kd as a tighter complex. As for FAM-labeled DNA duplex, the Kd in data set [1] was 166 nM; in data set [2], 105 nM.

B1: biotin-labeled C-terminal γH2AX peptide (peptide)
peptide: Biotin-GKKATQA[pS]QEY
notes: C terminus of H2AX, printed as BGKKATQApSQEY; also called biotin-γH2AXp; source: synthetic peptide (GL Biochem, Shanghai)
For B1, the binding result in data set [3] is given as “binds”.
